T1: Tax-interacting protein 1 (TIP-1), His10 tag cleaved (UniProt O14907 1-124)
T1 sequence (looked up): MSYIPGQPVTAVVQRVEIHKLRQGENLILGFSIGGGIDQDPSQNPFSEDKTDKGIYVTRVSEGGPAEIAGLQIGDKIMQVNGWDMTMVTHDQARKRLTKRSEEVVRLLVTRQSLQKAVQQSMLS


Tests used:
[1] = molecular target: T1, Tax-interacting protein 1 (TIP-1), …; test: fluorescence polarisation
[2] = molecular target: CFTR-associated ligand (CAL) PDZ domain (UniProt Q9HD26-2 276-362); test: fluorescence polarisation

| Ki [1] [µM] | Ki [2] [µM] | Binder |
| --- | --- | --- |
| 2.4 | 3.1 | WRFKKANSRWPTSII [BT-iCAL36] |
| > 1000 |  | ANSRLPTSII [L-iCAL36] |
| 390 |  | ANSRYPTSII [Y-iCAL36] |
